# Columns and labels:
# [1] = target: IL-2Rβγ-His (Acrobiosystems) (UniProt P14784); assay: ELISA on plate-coated IL-2Rβγ-His, OD450 against antibody concentration (M)
# [2] = target: IL-2Rα-His (Acrobiosystems) (UniProt P01589); assay: ELISA on plate-coated IL-2Rα-His, OD450 against antibody concentration (M)
# [3] = target: T1, Human PD-1 (Acrobiosystems, Cat #PD1-H5221) (human, UniProt Q15116 25-167); assay: SPR Biacore 8K, human PD-1 amine-coupled on CM5, 1:1 model, pH 6.0
# T1 construct: Bought protein, immobilised on a CM5 chip; also called hPD-1
# Method: (§1) Human PD-1 (Acrobiosystems, Cat #PD1-H5221) at a concentration of 1 μg/ml was immobilized on a CM5 chip (Cytiva) using an amine coupling kit (Cytiva) according to the manufacturer's instructions. […] After each experiment in each concentration cycle, the chip was regenerated with glycine at pH 1.5. At this time, the running buffer used was a pH 7.4 or pH 6.0 HBS-EP+ buffer (0.1 M HEPES, 1.5 M NaCl, 0.03 M EDTA and 0.5% v/v Surfactant P20), and the experimental proteins were diluted in the running buffer.
# (§2) The analysis was performed using the 1:1 binding model in Biacore evaluation software version 3.0, and the results of the kinetic constants (ka and kd) and affinity (KD) values are shown in Table 3 below.
# [4] = target: T1, Human PD-1 (Acrobiosystems, Cat …); assay: SPR Biacore 8K, human PD-1 amine-coupled on CM5, 1:1 model, pH 7.4
# Method: as §1, §2
# T1 sequence (Q15116 25-167 limits assumed): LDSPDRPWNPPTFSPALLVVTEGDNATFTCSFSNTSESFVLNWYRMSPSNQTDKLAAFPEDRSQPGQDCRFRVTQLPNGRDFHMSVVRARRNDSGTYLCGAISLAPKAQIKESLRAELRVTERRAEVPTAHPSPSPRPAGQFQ
# Chain of IL-2Rβγ-His (Acrobiosystems) (P14784 27-239 limits assumed, chain 1 of 2): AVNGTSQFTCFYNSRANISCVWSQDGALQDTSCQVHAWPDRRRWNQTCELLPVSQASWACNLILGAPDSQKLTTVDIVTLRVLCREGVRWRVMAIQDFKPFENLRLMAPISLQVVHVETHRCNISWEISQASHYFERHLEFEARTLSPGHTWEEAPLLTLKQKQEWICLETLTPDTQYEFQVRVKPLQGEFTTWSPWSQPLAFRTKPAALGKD
# Chain of IL-2Rβγ-His (Acrobiosystems) (P31785 23-262 limits assumed, chain 2 of 2, further chain): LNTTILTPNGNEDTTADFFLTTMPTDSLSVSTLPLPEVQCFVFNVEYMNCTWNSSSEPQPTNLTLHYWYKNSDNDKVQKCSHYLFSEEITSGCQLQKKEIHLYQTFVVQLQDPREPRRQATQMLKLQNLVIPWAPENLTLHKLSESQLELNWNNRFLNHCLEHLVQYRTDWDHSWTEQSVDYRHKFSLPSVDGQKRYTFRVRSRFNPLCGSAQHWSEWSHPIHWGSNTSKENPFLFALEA
# Chain of IL-2Rα-His (Acrobiosystems) (P01589 22-213): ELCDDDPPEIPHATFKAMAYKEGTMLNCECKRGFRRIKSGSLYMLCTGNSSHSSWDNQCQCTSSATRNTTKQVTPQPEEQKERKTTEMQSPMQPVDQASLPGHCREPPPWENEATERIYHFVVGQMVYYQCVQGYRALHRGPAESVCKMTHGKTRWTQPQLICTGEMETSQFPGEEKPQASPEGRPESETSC
EC50 [1],EC50 [2],Kd [3],koff [3],kon [3],Kd [4],koff [4],kon [4],Molecule
7.99 nM,0.325 nM,,,,,,,Fc-IL2 (control antibody; prepared in-house) (Fc fusion)
,,0.0481 nM,1.38e-05 s⁻¹,286000 M⁻¹ s⁻¹,0.237 nM,3.51e-05 s⁻¹,148000 M⁻¹ s⁻¹,"1G1-h70 (antibody, V domains shown, also called humanized anti-PD-1 antibody 1G1-h70; anti-PD-1 antibody) VH: QVQLVQSGAEVKKPGASVKVSCKASGYTFTGYWMHWVRQAPGQGLEWIGMIHPNSDTTTYNEKFKNRVTMTRDTSISTAYMELSRLRSDDTAVYYCAGTDQAAWFAFWGQGTTVTVSS VL: DIVMTQTPLSLSVTPGQPASISCRSSQNIVHSQGDTYLEWYLQKPGQSPQLLIYKVSKRFSGVPDRFSGSGSGTDFTLKISRVEAEDVGVYYCFQGSHVPWTFGGGTKVEIK"
